Bridge positions count the residues as written; N and C are the ends. Square brackets hold non-standard residues; d marks the D form. Ends that are not written are not given here. I, II: the chains in the order shown. Lys(N3) = [N-]=[N+]=NCCCC[C@H](N)C(=O)O; Pra = C#CC[C@H](N)C(=O)O
Key:
[1] = target: T1, Plasmodium falciparum Histidine Rich Protein-2 (Plasmodium falciparum); assay: assay not described; biligand cy(YKYYR)-linker-cy(GWNVDL)
T1 construct: the construct used in the assay is not described; also called Pf.HRP-2
T1 chain: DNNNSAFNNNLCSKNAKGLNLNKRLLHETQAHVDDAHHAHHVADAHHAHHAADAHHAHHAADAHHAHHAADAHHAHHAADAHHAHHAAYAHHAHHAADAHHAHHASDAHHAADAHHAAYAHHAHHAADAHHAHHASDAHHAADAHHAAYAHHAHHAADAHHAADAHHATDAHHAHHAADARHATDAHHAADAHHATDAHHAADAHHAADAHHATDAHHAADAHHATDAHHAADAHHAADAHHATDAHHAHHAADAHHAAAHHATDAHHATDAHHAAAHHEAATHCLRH

[2] = target: T1, Plasmodium falciparum Histidine Rich …; assay: assay not described
[3] = target: T1, Plasmodium falciparum Histidine Rich …; assay: assay not described; two Cy(YKYYR) PCCs joined by about a 1.5 nm linker
[4] = target: T2, Full-length His-tagged IL-17F protein (ab167911, Abcam) (human, UniProt Q96PD4 31-163); assay: binding to His-tagged IL-17F human recombinant protein
T2 construct: Bought protein, called full-length and His-tagged; also called human IL-17F protein; recombinant human IL-17F protein; not shown: His tag
T2 sequence: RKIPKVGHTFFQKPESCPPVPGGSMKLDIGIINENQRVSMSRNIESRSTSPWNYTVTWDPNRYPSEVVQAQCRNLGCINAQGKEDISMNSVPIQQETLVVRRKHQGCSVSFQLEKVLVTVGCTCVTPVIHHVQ

[5] = target: T2, Full-length His-tagged IL-17F protein …; assay: fluorescence polarization in solution; in solution by fluorescence polarization
[6] = target: T2, Full-length His-tagged IL-17F protein …; assay: point ELISA; recombinant human IL-17F against IL-17A
[7] = target: T2, Full-length His-tagged IL-17F protein …; assay: binding to His-tagged IL-17F human recombinant protein (ELISA format); reference: the individual PCC macrocycles Cy(RRATSX1X2) and Cy(RSYNKX1X2)
[8] = target: T2, Full-length His-tagged IL-17F protein …; assay: binding to His-tagged IL-17F human recombinant protein (ELISA format); PEG3-linked biligand; binding to His-tagged IL-17F, not in solution
[9] = target: T2, Full-length His-tagged IL-17F protein …; assay: fluorescence polarization in solution; IL-17F titrated against 5-FITC-tagged macrocycle; 5-FITC-tagged LF1, fluorescence polarization in solution
[10] = target: T2, Full-length His-tagged IL-17F protein …; assay: point ELISA; macrocycle on NeutrAvidin plate, His-tagged IL-17F against His-tagged IL-17A
[11] = target: T2, Full-length His-tagged IL-17F protein …; assay: sandwich ELISA; biotinylated macrocycle on NeutrAvidin plate, His-tagged IL-17F titrated, anti-His-AP detection
[12] = target: T3, His6-PEG3-FFQKPESSPPVPGGS (human, not fully specified (N-terminus); printed as His6-PEG3-FFQKPESSPPVPGGS); assay: point ELISA; macrocycle on NeutrAvidin plate, 2 µM His-tagged epitope
T3 construct: Not clear whether the listing entry holds the His6
T3 peptide: FFQKPESSPPVPGGS

[13] = target: T4, His6-PEG3-FFQKPESSPVSPGPG (not fully specified (N-terminus); printed as His6-PEG3-FFQKPESSPVSPGPG); assay: as above
T4 construct: Synthetic; residues C-terminal to C48S scrambled
T4 peptide: FFQKPESSPVSPGPG

[14] = target: T5, His6-PEG3-SQFEKFPSPPVPGGS (not fully specified (N-terminus); printed as His6-PEG3-SQFEKFPSPPVPGGS); assay: point ELISA; macrocycle on NeutrAvidin plate, His-tagged epitope, anti-His-AP detection
T5 construct: Synthetic; residues N-terminal to C48S scrambled
T5 peptide: SQFEKFPSPPVPGGS

[15] = target: T2, Full-length His-tagged IL-17F protein …; assay: point ELISA; surface-immobilized macrocycle with IL-17F, IL-17A or no protein
[16] = target: T2, Full-length His-tagged IL-17F protein …; assay: sandwich ELISA; biotinylated macrocycle on NeutrAvidin plate, His-tagged IL-17F titrated
[17] = target: T2, Full-length His-tagged IL-17F protein …; assay: point ELISA; macrocycle on NeutrAvidin plate, His-tagged IL-17F against His-tagged IL-17A at 100 nM
[18] = target: T1, Plasmodium falciparum Histidine Rich …; assay: assay not described; monoligand cy(GWNVDL)
[19] = target: T1, Plasmodium falciparum Histidine Rich …; assay: assay not described; monoligand Cy(YKYYR)
[20] = target: T2, Full-length His-tagged IL-17F protein …; assay: not stated in the sentence (same number as the ELISA EC50 of paragraph 504); monoligand Cy(RSYNKX1X2), not the biligand
[21] = target: T2, Full-length His-tagged IL-17F protein …; assay: fluorescence polarization in solution; IL-17F titrated against 5-FITC-tagged macrocycle; 5-FITC-tagged LF2, fluorescence polarization in solution

B1: cy(YKYYR)-linker-cy(GWNVDL) (designed binder)
peptide 1: YKYYR
peptide 2: GWNVDL
modifications: not fully specified (bridges); printed as cy(YKYYR)-linker-cy(GWNVDL)
notes: also called The resultant biligand
EC50 [1]: 0.54 nM
fold improvement over the better of the two ligand components [2]: 100 fold

B2: linked biligand of two Cy(YKYYR) PCCs (designed binder)
peptide: YKYYR
modifications: not fully specified (bridges)
notes: also called The resultant linked biligand
EC50 [3]: 20.8 nM

B3: Biotin-PEG3-Cy(RSYNKX1X2)-PEG3-Cy(RRATSX1X2) (designed binder)
peptide 1: RSYNK[Lys(N3)][Pra]
peptide 2: RRATS[Lys(N3)][Pra]
modifications: triazole I:6-I:7, II:6-II:7; not fully specified (N-terminus, C-terminus); printed as Biotin-PEG3-Cy(RSYNKX1X2)-PEG3-Cy(RRATSX1X2); also: chain 1 joined to chain 2 through one PEG3 linker, backbone orders Pra-RSYNK-Az4 and Pra-RRATS-Az4, no bonds X6-X7
notes: One covalent molecule: two macrocyclic peptides joined by a single PEGylated amino acid (not a peptide linker), written here as two peptide segments; also called Bi-LF; anti-IL-17F biligand with PEG3 linker
fold better binder than the biligands with other linkers [4]: ~10 fold
times stronger than the other biligands [4]: ≥ 16 fold
Kd [5]: 0.252 nM
selectivity for IL-17F over IL-17A [6]: 4 ratio IL-17F:IL-17A
fold improvement in affinity relative to the individual PCC macrocyclic ligands [7]: > 100 fold
Kd [8]: 0.246 nM

B4: Cy(RRATSX1X2)-PEG3-biotin (peptide)
peptide: RRATS[Lys(N3)][Pra]
modifications: triazole 6-7; not fully specified (C-terminus, bridges); printed as Cy(RRATSX1X2)-PEG3-biotin; also: no peptide bond X6-X7, Pra is the true N-terminus, Az4 the true C-terminus, PEG3-biotin label at C-terminus (on Az4)
notes: Biotin-PEG3 form used on NeutrAvidin plates; also called LF1
Kd [9]: 50 nM
selectivity for IL-17F over IL-17A [10]: 2 ratio IL-17F:IL-17A
EC50 [11]: 66 nM
binding result [12]: binds
binding result [13]: binds
binding result [14]: no binding (tested: 2 µM epitope)
selectivity for IL-17F over IL-17A [15]: 10 ratio IL-17F:IL-17A

B5: Cy(RRAQSX1X2)-PEG3-biotin (peptide)
peptide: RRAQS[Lys(N3)][Pra]
modifications: triazole 6-7; not fully specified (C-terminus, bridges); printed as Cy(RRAQSX1X2)-PEG3-biotin; also: no peptide bond X6-X7, Pra is the true N-terminus, Az4 the true C-terminus, PEG3-biotin label at C-terminus (on Az4)
selectivity for IL-17F over IL-17A [10]: 2 ratio IL-17F:IL-17A
EC50 [11]: 52 nM
binding result [12]: binds
binding result [13]: binds
binding result [14]: no binding (tested: 2 µM epitope)

B6: Biotin-PEG3-Cy(KKGWPX1X2) (peptide)
peptide: KKGWP[Lys(N3)][Pra]
modifications: triazole 6-7; not fully specified (N-terminus, bridges); printed as Biotin-PEG3-Cy(KKGWPX1X2); also: no peptide bond X6-X7, Pra is the true N-terminus, Az4 the true C-terminus, Biotin-PEG3 label at N-terminus (on Pra)
EC50 [16]: 24 nM
selectivity for IL-17F over IL-17A [17]: 4 ratio IL-17F:IL-17A

B7: cyclic PCC with variable sequence GWNVDL (peptide)
peptide: GWNVDL
modifications: not fully specified (bridges); also: cyclic, ring closure not given here
notes: also called cy(GWNVDL)
EC50 [18]: 50 nM

B8: Cy(YKYYR) (peptide)
peptide: YKYYR
modifications: also: cyclic, ring type not given here
notes: also called cyclic YKYYR
EC50 [19]: 220 nM

B9: Biotin-PEG3-Cy(RSYNKX1X2) (peptide)
peptide: RSYNK[Lys(N3)][Pra]
modifications: triazole 6-7; not fully specified (N-terminus, bridges); printed as Biotin-PEG3-Cy(RSYNKX1X2); also: no peptide bond X6-X7, Pra is the true N-terminus, Az4 the true C-terminus, Biotin-PEG3 label at N-terminus (on Pra)
notes: also called LF2
EC50 [16]: 15 nM
selectivity for IL-17F over IL-17A [17]: 4 ratio IL-17F:IL-17A
Kd [20]: 15 nM
Kd [21]: 28 nM

Source: patent US20240337665A1 (INDI MOLECULAR, published 2024)
